Test results taken from doi:10.1101/2023.05.17.541065.

Columns and labels:
EIL1-GST = biological target: T1, EIL1-GST (tomato, UniProt Q94FV4 1-610); test: EMSA
T1 sequence: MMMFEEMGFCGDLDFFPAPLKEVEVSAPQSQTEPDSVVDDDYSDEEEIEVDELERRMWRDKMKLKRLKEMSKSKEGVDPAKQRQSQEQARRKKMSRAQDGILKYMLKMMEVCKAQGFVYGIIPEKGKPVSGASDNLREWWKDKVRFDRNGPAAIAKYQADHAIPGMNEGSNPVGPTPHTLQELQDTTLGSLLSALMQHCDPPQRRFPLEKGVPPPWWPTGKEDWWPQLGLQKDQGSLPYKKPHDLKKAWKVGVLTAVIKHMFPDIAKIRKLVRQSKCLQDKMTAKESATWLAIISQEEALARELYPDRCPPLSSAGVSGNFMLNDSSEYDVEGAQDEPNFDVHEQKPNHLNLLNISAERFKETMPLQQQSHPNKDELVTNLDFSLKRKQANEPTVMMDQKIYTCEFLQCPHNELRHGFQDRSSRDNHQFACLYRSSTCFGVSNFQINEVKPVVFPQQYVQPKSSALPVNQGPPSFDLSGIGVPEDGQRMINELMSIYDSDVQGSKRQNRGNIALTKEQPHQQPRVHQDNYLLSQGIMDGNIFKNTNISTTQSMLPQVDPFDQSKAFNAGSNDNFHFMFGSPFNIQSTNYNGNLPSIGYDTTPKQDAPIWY

MYC2-TF = MYC2-TF (tomato, UniProt A0A3Q7HRZ6 1-689); test: EMSA
Sequence of MYC2-TF (A0A3Q7HRZ6 whole entry): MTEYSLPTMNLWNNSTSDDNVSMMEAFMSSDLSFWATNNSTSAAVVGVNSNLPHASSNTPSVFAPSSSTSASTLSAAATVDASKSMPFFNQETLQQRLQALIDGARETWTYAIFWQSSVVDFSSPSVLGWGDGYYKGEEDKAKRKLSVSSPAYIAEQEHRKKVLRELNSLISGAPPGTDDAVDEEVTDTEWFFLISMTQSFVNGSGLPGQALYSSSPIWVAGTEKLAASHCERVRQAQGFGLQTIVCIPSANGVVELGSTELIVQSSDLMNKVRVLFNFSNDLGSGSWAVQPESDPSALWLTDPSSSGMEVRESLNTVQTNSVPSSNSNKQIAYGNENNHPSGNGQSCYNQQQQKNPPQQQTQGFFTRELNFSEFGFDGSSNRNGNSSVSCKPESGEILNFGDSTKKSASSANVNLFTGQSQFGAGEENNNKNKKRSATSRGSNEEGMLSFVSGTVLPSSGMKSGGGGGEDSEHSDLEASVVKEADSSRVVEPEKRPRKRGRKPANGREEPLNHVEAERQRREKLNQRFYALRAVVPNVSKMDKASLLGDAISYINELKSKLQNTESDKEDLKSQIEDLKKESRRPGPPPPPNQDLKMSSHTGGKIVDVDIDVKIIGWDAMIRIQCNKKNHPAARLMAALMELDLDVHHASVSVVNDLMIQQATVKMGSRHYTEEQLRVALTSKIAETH

| Binder | binding result (EIL1-GST) | binding result (MYC2-TF) |
| --- | --- | --- |
| CYP94C1 promoter EBS probe (dsDNA) DNA 1: TGTGTCTTTTTTCAATAAAGGTGATGTATCGGGACAAGATGCATCGGACGCTG DNA 2: CAGCGTCCGATGCATCTTGTCCCGATACATCACCTTTATTGAAAAAAGACACA | binds |  |
| CYP94B promoter G-box probe (dsDNA) DNA 1: TTTACGCGCACAAGAAACACGTGATTTAAATGCATAATTA DNA 2: TAATTATGCATTTAAATCACGTGTTTCTTGTGCGCGTAAA |  | binds |
